The results in this text go back to patent US20090202556A1 (Kyowa Kirin, published 2009).

The target of assay [1] is T1, human CLDN4 (Claudin-4) expressed by human cancer cell lines (Capan-2, HPAF-II, MCF7, HT-29, SW480, 22Rv1, DU … (human, UniProt O14493 1-209)).
T1 construct: Endogenous protein on cell lines; MCF7 is said to express both CLDN3 and CLDN4; also called CLDN4 expressed in breast cancer cells, colorectal cancer cells and prostate cancer cells
T1 sequence: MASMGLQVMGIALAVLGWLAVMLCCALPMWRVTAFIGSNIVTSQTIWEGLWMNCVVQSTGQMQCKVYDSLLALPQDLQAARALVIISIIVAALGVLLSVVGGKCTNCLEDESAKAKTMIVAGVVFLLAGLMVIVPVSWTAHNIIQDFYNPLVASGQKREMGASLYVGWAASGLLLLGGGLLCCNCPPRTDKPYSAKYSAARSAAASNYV
Put plainly: FCM on live MCF7 cells (express both CLDN3 and CLDN4), 5 µg/ml. The method, then:
(§1) Pancreatic cancer cell line Capan-2 which expresses CLDN4 was used as the evaluation cell of cKM3900, and a breast cancer cell line MCF7 which expresses both of CLDN3 and CLDN4 was used as the evaluation cell of cKM3907. The cells were cultured for 3 to 4 days and peeled off using 0.02% EDTA solution (manufactured by Nacalai Tesque) to recover the resulting cells. The thus recovered cells were washed with PBS and, in order to avoid nonspecific adsorption of antibodies, blocked using BSA-PBS at ice temperature for 30 minutes. The cells were dispensed at 1 to 5×10⁵ cells/100 μl BSA-PBS into a 96-well U bottom plate and centrifuged (1,500 rpm, 5 minutes), the supernatant was removed and then 5 μg/ml of a negative control antibody cKM3034 (anti-FGF8 human chimeric antibody) [US 2004/0091480], an anti-CLDN4 monoclonal antibody KM3900 or KM3907 or an anti-CLDN4 human chimeric antibody cKM3900 or cKM3907 was dispensed as the primary antibody at 100 μl/well and allowed to react at ice temperature for 60 minutes. […] After washing again once with PBS and subsequently suspending in PBS, the fluorescent intensity was measured by FCM (manufactured by Beckman Coulter).

For assay [2], the target named is T1, human CLDN4 (Claudin-4) expressed by …. Put plainly: FCM on live Capan-2 cells (express CLDN4), 5 µg/ml. The method, then: as §1

B1: anti-CLDN4 human chimeric antibody cKM3907 (antibody, V domains shown)
VH: QVQLQQSGPELVKPGASVKISCKASGYAISTSWMNWVKQRPGKGLEWIGRINPGDGNTNYNGKFMAKATLTADKPSSTAYMQLSSLTSEDSAVYFCTRGDRWSGAMDYWGQGTSVTVSS
VL: GNVLTQSPAIMSASPGEKVTMTCRASSSVSSSYLHWYQQKSGASPKLWIYSTSNLASGVPVRFSGSGSGTSYSLTISSVEAEDAATYYCQQYSGFPLTFGAGTKLELK
notes: Human chimeric IgG: mouse V regions of KM3907 joined to the human CH and CL of vector pKANTEX93 (WO 97/10354); also called cKM3907-93 (expression vector)
For the molecule B1, the binding result in assay [1] is “binds”.

B2: anti-CLDN4 human chimeric antibody cKM3900 (antibody, V domains shown)
VH: EVQLQQSGPELVKPGASVKISCKASGYTFTDYYMNWVKQSHGKSLEWIGDVVPNNGVPTYNQKFKGKATLTVDKSSSTAYMELRSLTSEDSAVYYCARPHYYYAGRSGAMDYWGQGTSVTVSS
VL: QIVLTQSPAIMSASLGERVTMTCTASSTVSSTYLHWYQQKPGSSPKLWIYSTSNLASGVPARFSGSGSGTSYSLTISSMEAEDAATYYCHQYHRSPPTFGGGTKLEIK
notes: Human chimeric IgG: mouse V regions of KM3900 joined to the human CH and CL of vector pKANTEX93 (WO 97/10354); also called cKM3900-93 (expression vector)
For B2, in assay [2], the binding result was “binds”.
